Like-named read-outs stand apart in the source and are kept apart here.

This is an account of results in patent US20260193335A1 (ZOETIS SERVICES, published 2026).

Assay [1] deals with NGF (target of felinized anti-NGF antibodies mAb2 and mAb3). As to the kind of experiment: cell-based or functional assay.
Assay [2] addresses Feline FcRn (complex of FcRn-α subunit and β-microglobulin, C-terminal His tag) (feline). The assay can be described thus: SPR Biacore, FcRn amine-coupled on CM5, pH 6. Background: Surface plasmon resonance follows binding to a sensor surface in real time, without labels.
Assay [3] has the same target. The assay can be described thus: SPR Biacore, FcRn amine-coupled on CM5, pH 7.2.
Assay [4] has as its target NGF (target of felinized anti-NGF antibodies mAb2 and mAb3). As to the kind of experiment: SPR Biacore T200, target amine-coupled, 15 C.
The target of assay [5] is TGFβ (target of felinized anti-TGFβ antibody mAb6). The assay can be described thus: cell-based or functional assay.
Assay [6] has the same target. The assay can be described thus: SPR Biacore T200, target amine-coupled, 15 C.
Assay [7] deals with T1, Feline FcRn (complex of FcRn-α subunit and β-microglobulin, C-terminal His tag) (feline, UniProt A0ABI7ZNY9 23-296; Q5MGS7 21-118).
T1 construct: treated here as one molecule
The assay can be described thus: SPR Biacore, FcRn amine-coupled on CM5, pH 6. On the procedure: (§1) Feline FcRn was isolated, prepared and mutant Fc IgGs were assayed against feline FcRn according to Strietzelg et. al. Standard RACE PCR was used to amplify feline FcRn-α subunit and β-microglobulin. FcRn-α subunit and β-microglobulin were co-transfected into HEK 293 cells and the FcRn complex was purified by IMAC affinity purification via the c-terminal His tag. KD's were measured by Biacore 3000 or Biacore T200 (GE Healthcare, Pittsburgh, PA, USA) using a CM5 sensor chip.
(§2) FcRn was immobilized on the surface of the sensor using the standard amine immobilization method to reach the desired surface density. HBS-EP was used as the immobilization running buffer and 10 mM MES; 150 mM NaCl; 0.005% Tween20; 0.5 mg/mL BSA; pH6 and pH7.2 and PBS; 0.005% Tween20; 0.5 mg/mL BSA; pH7.4 were used for method running buffers and titrations. Fc mutant IgGs were flowed over receptor surfaces and affinity was determined using Scrubber2 software analysis (BioLogic Software Pty, Ltd., Campbell, Australia) or T200 evaluation software (Table 2). Blank runs containing buffer only were subtracted out from all runs. Flow cells were regenerated using 50 mM Tris pH8. Runs were performed at 15° C.

Assay [8] concerns the target T1, Feline FcRn (complex of FcRn-α subunit …). As to the kind of experiment: SPR Biacore, biotin-FcRn on SA chip, pH 6. Summed up: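 Feline FcRn α/β-microglobulin complex, expressed in HEK 293 cells, His-tag purified and BirA-biotinylated, was captured on an SA chip. Fc mutant IgGs flowed over at 15° C in MES/NaCl/Tween20/BSA at pH 6, or HBS-P/BSA at pH 7.4. KD from buffer-blank-subtracted runs; regeneration with 50 mM Tris pH 8 or 9.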

The target is the same in assay [9]. As to the kind of experiment: SPR Biacore, FcRn amine-coupled on CM5, pH 7.2. On the procedure:
as §1, §2

In assay [10] the target is T2, NGF (target of felinized anti-NGF antibodies mAb2 and mAb3).
T2 chain: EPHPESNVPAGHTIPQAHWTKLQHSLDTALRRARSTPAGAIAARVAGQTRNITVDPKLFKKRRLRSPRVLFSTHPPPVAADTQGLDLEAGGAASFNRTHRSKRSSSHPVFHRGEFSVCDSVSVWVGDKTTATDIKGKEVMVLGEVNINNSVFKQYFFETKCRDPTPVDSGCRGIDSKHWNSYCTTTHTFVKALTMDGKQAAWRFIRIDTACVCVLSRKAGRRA
As to the kind of experiment: SPR Biacore T200, target amine-coupled, 15 C. On the procedure: Affinity for each mAb was assessed by Biacore and the IC50 was determined via a suitable cell based potency assay.
Flow cell 1 was used as an internal reference to correct running buffer effects. Antibody binding was measured at 15° C. with a contact time of 250 s and flow rate of 30 μl/min. The dissociation period was 300 s. Regeneration was performed with regeneration buffers (10 mM Glycine pH1.5 and 10 mM NaOH) and flow rate at 20 μl/min for 60 s each. Running/dilution buffer (1×HBS-EP, GE Healthcare, BR-1006-69, 10× including 100 mM HEPES, 150 mM NaCl, 30 mM EDTA and 0.5% v/v surfactant P20, pH7.4, 1:10 in filtered MQ H2O) was used as negative control at the same assay format.
Data were analyzed with Biacore T200 Evaluation software by using the method of double referencing. The resulting curve was fitted with the 1:1 binding model. No differences in binding affinities or IC50 were observed between wild-type and 5434 and 5428 mutant IgGs (Table 1).

Feline FcRn (complex of FcRn-α subunit and β-microglobulin, C-terminal His tag) (feline), sequence (chain, as listed by the source, chain 1 of 2): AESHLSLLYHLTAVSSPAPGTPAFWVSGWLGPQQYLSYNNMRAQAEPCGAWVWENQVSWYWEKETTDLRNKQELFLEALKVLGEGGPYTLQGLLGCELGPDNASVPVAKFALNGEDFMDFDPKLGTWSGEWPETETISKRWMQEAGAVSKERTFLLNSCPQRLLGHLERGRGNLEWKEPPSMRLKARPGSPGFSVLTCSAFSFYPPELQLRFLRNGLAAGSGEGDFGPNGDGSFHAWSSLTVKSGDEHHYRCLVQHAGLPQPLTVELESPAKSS
Feline FcRn (complex of FcRn-α subunit and β-microglobulin, C-terminal His tag) (feline), sequence (Q5MGS7 21-118, chain 2 of 2): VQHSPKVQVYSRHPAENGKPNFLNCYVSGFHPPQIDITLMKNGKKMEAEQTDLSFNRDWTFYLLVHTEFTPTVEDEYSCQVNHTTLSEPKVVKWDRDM

B1: mAb2 (felinized anti-NGF antibody) wild-type, feline IgG1a (antibody, part only; not given: Anti-NGF heavy and light variable domains, part only)
heavy, part: ASTTAPSVFPLAPSCGTTSGATVALACLVLGYFPEPVTVSWNSGALTSGVHTFPAVLQASGLYSLSSMVTVPSSRWLSDTFTCNVAHPPSNTKVDKTVRKTDHPPGPKPCDCPKCPPPEMLGGPSIFIFPPKPKDTLSISRTPEVTCLVVDLGPDDSDVQITWFVDNTQVYTAKTSPREEQFNSTYRVVSVLPILHQDWLKGKEFKCKVNSKSLPSPIERTISKAKGQPHEPQVYVLPPAQEELSRNKVSVTCLIKSFHPPDIAVEWEITGQPEPENNYRTTPPQLDSDGTYFVYSKLSVDRSHWQRGNTYTCSVSHEALHSHHTQKSLTQSPGK
In the case of B1, the IC50 (cell based potency assay) in assay [1] was 0.69 nM. The Kd in assay [2] was 25 nM; in [3], 380 nM; in assay [4], 0.023 nM.

B2: mAb2 (felinized anti-NGF antibody) S428L, feline IgG1a (antibody, part only; not given: Anti-NGF heavy and light variable domains, part only)
heavy, part: ASTTAPSVFPLAPSCGTTSGATVALACLVLGYFPEPVTVSWNSGALTSGVHTFPAVLQASGLYSLSSMVTVPSSRWLSDTFTCNVAHPPSNTKVDKTVRKTDHPPGPKPCDCPKCPPPEMLGGPSIFIFPPKPKDTLSISRTPEVTCLVVDLGPDDSDVQITWFVDNTQVYTAKTSPREEQFNSTYRVVSVLPILHQDWLKGKEFKCKVNSKSLPSPIERTISKAKGQPHEPQVYVLPPAQEELSRNKVSVTCLIKSFHPPDIAVEWEITGQPEPENNYRTTPPQLDSDGTYFVYSKLSVDRSHWQRGNTYTCSVLHEALHSHHTQKSLTQSPGK
In turn, B2 gave an IC50 (cell based potency assay) in assay [1] of 0.58 nM. The dissociation constant (Kd) in assay [2] came to 1.51 nM; in [3], 60 nM; in [4], 0.008 nM.

B3: mAb6 (felinized anti-TGFβ antibody of Tables 1 and 2) S428L, feline IgG1a (antibody, part only; not given: Anti-TGFβ variable domains, antibody unnamed, part only)
heavy, part: ASTTAPSVFPLAPSCGTTSGATVALACLVLGYFPEPVTVSWNSGALTSGVHTFPAVLQASGLYSLSSMVTVPSSRWLSDTFTCNVAHPPSNTKVDKTVRKTDHPPGPKPCDCPKCPPPEMLGGPSIFIFPPKPKDTLSISRTPEVTCLVVDLGPDDSDVQITWFVDNTQVYTAKTSPREEQFNSTYRVVSVLPILHQDWLKGKEFKCKVNSKSLPSPIERTISKAKGQPHEPQVYVLPPAQEELSRNKVSVTCLIKSFHPPDIAVEWEITGQPEPENNYRTTPPQLDSDGTYFVYSKLSVDRSHWQRGNTYTCSVLHEALHSHHTQKSLTQSPGK
With B3, the IC50 (cell based potency assay) in assay [5] was 10 nM. For the same molecule, the Kd came to 15 nM in assay [2], 230 nM in assay [3] and 0.0843 nM in assay [6].

B4: mAb6 (felinized anti-TGFβ antibody of Tables 1 and 2) wild-type, feline IgG1a (antibody, part only; not given: Anti-TGFβ variable domains, antibody unnamed, part only)
heavy, part: ASTTAPSVFPLAPSCGTTSGATVALACLVLGYFPEPVTVSWNSGALTSGVHTFPAVLQASGLYSLSSMVTVPSSRWLSDTFTCNVAHPPSNTKVDKTVRKTDHPPGPKPCDCPKCPPPEMLGGPSIFIFPPKPKDTLSISRTPEVTCLVVDLGPDDSDVQITWFVDNTQVYTAKTSPREEQFNSTYRVVSVLPILHQDWLKGKEFKCKVNSKSLPSPIERTISKAKGQPHEPQVYVLPPAQEELSRNKVSVTCLIKSFHPPDIAVEWEITGQPEPENNYRTTPPQLDSDGTYFVYSKLSVDRSHWQRGNTYTCSVSHEALHSHHTQKSLTQSPGK
With B4, the IC50 (cell based potency assay) in assay [5] turned out to be 9 nM. The Kd in [2] was determined as 120 nM; in assay [6] it was 0.00375 nM.

B5: mAb3 (felinized anti-NGF antibody ZTS-768) S434H, feline IgG1a (antibody)
heavy: DVQLVESGGDLVKPGGSLRLTCVASGFTYSNYWMHWVRQAPGKGLQWVARIDPYGGGTKHNEKFKRRFTISRDNAKNTLYLQMNSLKTEDTATYYCVRSGYDYYFDVWGQGTLVTVSSASTTAPSVFPLAPSCGTTSGATVALACLVLGYFPEPVTVSWNSGALTSGVHTFPAVLQASGLYSLSSMVTVPSSRWLSDTFTCNVAHPPSNTKVDKTVRKTDHPPGPKPCDCPKCPPPEMLGGPSIFIFPPKPKDTLSISRTPEVTCLVVDLGPDDSDVQITWFVDNTQVYTAKTSPREEQFNSTYRVVSVLPILHQDWLKGKEFKCKVNSKSLPSPIERTISKAKGQPHEPQVYVLPPAQEELSRNKVSVTCLIKSFHPPDIAVEWEITGQPEPENNYRTTPPQLDSDGTYFVYSKLSVDRSHWQRGNTYTCSVSHEALHHHHTQKSLTQSPGK
light: EIQMTQSPSSLSASPGDRVTITCRASENIYSFLAWYQQKPGKVPKLLIYNANTLAEGVPSRFSGSGSGTDFTLTISSLEPEDAATYYCQHHFGTPFTFGSGTKLEIKRSDAQPSVFLFQPSLDELHTGSASIVCILNDFYPKEVNVKWKVDGVVQNKGIQESTTEQNSKDSTYSLSSTLTMSSTEYQSHEKFSCEVTHKSLASTLVKSFQRSECQRE
notes: also called mAb3 S434H; mAb3 ID No. 00
B5: the Kd in assay [7] amounted to 1.02 nM; in [8], 2.6 nM; in assay [9], 0.524 nM; in assay [10], 1.32 pM.

As a reminder, the Kd is the free concentration of one partner at which half of the binding sites on the other are occupied at equilibrium, for simple one-to-one binding.
